Series [1] concerns the target Orb2 filaments purified from adult heads (Drosophila melanogaster (endogenous in …, UniProt Q9VSR3 1-704)). In words: seeded aggregation.
Series [2] concerns the molecule itself. In words: SDS-PAGE and SDD-AGE with western blotting. A general note: In western blotting, separated proteins are transferred to a membrane and probed.

B1: Orb2 (Drosophila CPEB) purified from adult heads (natural protein)
chain: MDSLKLPKANSATSSASGSNSNLSGSTSASASAATSPTSSGTAVGGILSGAPKSPPGLGSSTPISVRFNANEESLDDILQSFHHSKHSPSGGASGGGDASPTSNLLGMKNNGLGLVVGNCDSLSSSPSQPQMHAGSASLFGNDEVSLRNNFMQAGGFFNRKSCGGLPNLNLNKPPQLHQQQHQQQHQQHQQHQQQQQLHQHQQQLSPNLSALHHHHQQQQQLRESGGSHSPSSPGGGGGGSPYNGSQAGCSSGGISPIPPQMGVSPKYRRSISFPIKGNSPTAIYGNMHMDGMGSGHMNIPTLSIGNGGGGGSTGMVSAGATGGGDAPYLGNSYGNMMTSNGQMHHGGGLDNSLCDYMRNMSLGGNGGGDGSNSMSLMQDRMRVMGGPKHLSEADAMAIAASGNDPSVYLNALKMGSPSRLSPHSPHSPIQGGNGGNVGDGTARFSRKVFVGGLPPDIDEDEITTSFRRFGPLVVDWPHKAESKSYFPPKGYAFLLFQDESSVQQLIDSCITDEDKLYLCVSSPTIKDKAVQIRPWRLADADYVLDATMSLDPRKTVFVGGVPRPLKAFELAMIMDRLYGGVCYAGIDTDPELKYPKGAGRVAFSNQQSYIAAISARFVQLQHGDIDKRVEVKPYVLDDQMCDECEGQRCGGKFAPFFCANVTCLQYYCEHCWAVIHSRPGREYHKPLVKEGADRPRAVPFRWC
B1: the binding result in series [1] and in series [2] was “binds” each time.

The values are drawn from paper PMC7182444 (Science (New York, N.Y.), 2020).
